Here are results for one substance from article PMC11414720.

The target of the assay is TMED2 (overexpressed) (UniProt Q15363). The experiment in a line: SEC; gel filtration of overexpressed protein in octyl-β-glucoside, a harsher detergent. (In gel filtration, larger molecules generally elute earlier.)

Chain of TMED2 (overexpressed), Q15363 21-201 (receptor; other documents disagree on this pair) (Q15363 21-201): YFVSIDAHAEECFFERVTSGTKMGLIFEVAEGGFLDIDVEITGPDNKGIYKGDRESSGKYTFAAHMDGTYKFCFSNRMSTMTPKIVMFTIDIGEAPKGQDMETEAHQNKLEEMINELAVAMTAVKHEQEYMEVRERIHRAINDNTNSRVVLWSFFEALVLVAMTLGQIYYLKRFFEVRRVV

For “TMED2 (overexpressed), Q15363 21-201 (receptor; other documents disagree on this pair)”, the stoichiometry N (in general, a count of units in the complex or per binding partner) is 2.
